# Test results reported in patent US20040152630A1.
# Target: different isoforms of the 14-3-3
# Experiment: not stated (R18 isolated by phage display; Wang et al. 1999 cited)
binder,measurement,value
PHCVPRDLSWLDLEANMCLP [R18 polypeptide (14-3-3 amphipathic groove binding antagonist)],Kd,80 nM
